Source: article doi:10.1101/2022.10.18.22281172

Tests used:
[1] = biological target: cynomolgus macaque FcRn (cynomolgus macaque) (UniProt Q8SPV9); experiment: SPR
[2] = biological target: human neonatal Fc receptor (human) (UniProt P55899); experiment: SPR
Sequence of UniProt P55899 (P55899 24-365): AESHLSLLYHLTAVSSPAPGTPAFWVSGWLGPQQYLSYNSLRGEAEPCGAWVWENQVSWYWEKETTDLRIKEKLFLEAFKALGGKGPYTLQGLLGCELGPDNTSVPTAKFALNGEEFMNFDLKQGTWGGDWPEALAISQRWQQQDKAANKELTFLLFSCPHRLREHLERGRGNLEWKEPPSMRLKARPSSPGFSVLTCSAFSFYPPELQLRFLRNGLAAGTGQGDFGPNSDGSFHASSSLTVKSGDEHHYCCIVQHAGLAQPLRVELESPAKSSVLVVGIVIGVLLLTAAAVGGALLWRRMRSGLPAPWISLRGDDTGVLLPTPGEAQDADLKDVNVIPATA

Sequence of UniProt Q8SPV9 (Q8SPV9 24-365): as the sequence (P55899 24-365) above, with N39D, E44Q, G99S, S189G, S190N, L217M, S269T, V319S, L332S, V335I counted along it

In the case of adintrevimab (antibody), the fold higher affinity relative to ADG2 [1] is reported as 5 fold and the fold higher affinity relative to ADG2 [2] is reported as 6 fold.
